The chains are these.
B1: Hairpin Ribozyme (parent)
chain: GUCCUCUUUCACGUGCGCGUGAAAGAGAGAAGUGAACCAGAGAAACACACGUUGUGGUAUAUUACCUGGUA

Variants of B1 are the subject of this data set. In words: self-cleavage, relative activity (ratio to wild type); higher = more cleavage; co-transcriptional.
U5C A47G: the self-cleavage came to 0.332. In the case of U33A A64C, the self-cleavage is 0.143.

As for G29A C46U, the self-cleavage stood at 0.238. On to C3U C4A, for which the self-cleavage came to 0.0854. With C48G G56U, the self-cleavage worked out at 0.193. Under A23G A41C stands 1.19; under A35G A59G, 0.266; under A11G G15U, 0.857. As to A41C A45U, the self-cleavage is 0.202. As to A41C A45G, the self-cleavage was 0.257. Under C10A G40U stands 0.141. Under G13A U58G stands 0.594; under G13C U67C, 0.126; under G21U A41C, 1.12. Under U8A G56C stands 0.196; under C48U G56C, 0.104; under U2G A23G, 0.318. As to U8A G32A, the self-cleavage came to 0.141. In the case of A30G A61U, the self-cleavage was found to be 0.153. Under C18G U53A stands 1.02; under A30G A45C, 0.267. For the variant G17U G32A, the self-cleavage is 0.122. As for A30G A41C, the self-cleavage amounted to 0.201. The figure for C38G A44C is 0.17. Under A30G U33G stands 0.0952.

For the variant G54U G69A, the self-cleavage was 0.122.

In the case of C18A G54A, the self-cleavage amounted to 0.591. Under G27U G51U stands 0.402; under A43C C46A, 0.1; under G25U U52G, 0.696.

As for C16A U20C, the self-cleavage was 0.956. The figure for G32U U53C is 0.253; for C4A C10G it is 0.164.

In the case of A49G U63C, the self-cleavage is 0.253. Under C38U G51C stands 0.583; under C46A G54C, 0.129; under A43U U53A, 0.206.

On to C38A G69U, for which the self-cleavage was determined as 0.0684. Under A22U A31G stands 0.589; under C46A G51C, 0.0397. For the variant C4U G34C, the self-cleavage amounted to 1.03. Under C4U G34U stands 1.12. As for C12A A30G, the self-cleavage was 0.206. As for A11C U63C, the self-cleavage turned out to be 0.141. The figure for C10U C50G is 0.195. The figure for C6G A26U is 0.198. The figure for G25A A31G is 0.127. Turning to G15C U52A, the self-cleavage turned out to be 1.19.

In the case of C4U A24U, the self-cleavage was 0.295. The figure for U2C U63A is 0.115; for C4U U63C it is 0.191; for U5A A24U it is 0.273. The figure for C48U G68U is 0.097; for C12A G15C it is 0.837. The figure for G57U G69U is 0.215; for U8A C50A it is 0.158. As for A30U A35G, the self-cleavage came to 0.217.

For the variant A31G G32U, the self-cleavage is 0.121. On to U8G C65U, for which the self-cleavage worked out at 0.363. Under G32C A39U stands 0.174. Under U58C U60A stands 0.845. Consider C18A C37A, for which the self-cleavage amounted to 0.315.

With G32U C38G, the self-cleavage came to 0.125. As for A22G U60G, the self-cleavage was found to be 0.416. The figure for A24C U55A is 0.267; for A23U A47C it is 0.386; for U14C G51C it is 0.586. As for A24G G68A, the self-cleavage amounted to 0.172. Under G15A A39C stands 0.508.

With G13A U62C, the self-cleavage was 0.242. U5C U52G: the self-cleavage came to 0.608.

Take G32C G69C: the self-cleavage came out at 0.115. The figure for U5C C46A is 0.139; for U9G G54U it is 0.52. The figure for A31U G42A is 0.0839; for C10U U70A it is 0.704; for U8C C46A it is 0.102. On to A43G G57U, for which the self-cleavage was determined as 0.151. The figure for A26C A41G is 0.633; for A35G G68A it is 0.309. Take C48A G56U: the self-cleavage was 0.304. With A30C U67A, the self-cleavage was 0.0972. The figure for G15C A30U is 0.293. The figure for C4G G56C is 0.111; for A44C A61G it is 0.115; for G17A G42A it is 0.222. Consider G1A U33A, for which the self-cleavage came to 0.175. Under G51C U53A stands 0.72; under G17C A39U, 0.35; under G34U U60A, 1.52.

Turning to A30C A64U, the self-cleavage was 0.211.

With G15C G40C, the self-cleavage came out at 0.125. Under C4U G56C stands 0.214; under U8C G68C, 0.238; under C38A A61U, 0.064. The figure for U33C A59C is 0.198. On to C37U A43U, for which the self-cleavage stood at 0.0491. Under G15C U70A stands 0.848; under U2A A39U, 0.127.

As for G40A A47G, the self-cleavage is 0.138. Under G29U C48A stands 0.0831. Under A11G G27C stands 0.198; under C4U U55C, 0.093. The figure for A61C G69A is 0.159; for G21U G40U it is 0.147; for C6A A44C it is 0.0999. Take U53G G56C: the self-cleavage worked out at 0.125.

For the variant G21A U33C, the self-cleavage was determined as 0.116. Under G69A A71C stands 0.912. Under G21U U63A stands 0.105.

Consider C3A G17A, for which the self-cleavage is 0.785. The figure for G17A U52G is 0.982. As for A39U U70G, the self-cleavage was 0.333. Under U8A A71U stands 0.631; under U8A C65G, 0.104; under G21C A30C, 0.242. Under G40A G69U stands 0.197.

On to A47C U63C, for which the self-cleavage worked out at 0.0902.

With U20G U55A, the self-cleavage was 0.147.

Take A49U C50U: the self-cleavage was 0.139. Under A22C A45C stands 0.128; under C38A G68C, 0.137. As to A31C U52G, the self-cleavage amounted to 0.0727. Under A23U stands 0.852. With G13C C66U, the self-cleavage amounted to 0.431. The figure for U33G C66G is 0.0993. Under C4U U58C stands 0.495. For C18U U63C, the self-cleavage came to 0.18.

Regarding A30U A49G, the self-cleavage turned out to be 0.2. As for A30U A49U, the self-cleavage turned out to be 0.274. As to C16G A59C, the self-cleavage is 0.17. On to A28U G57A, for which the self-cleavage turned out to be 0.152. Regarding U9C U60A, the self-cleavage is 0.769. The figure for G1A U2C is 0.899. As to G25C G54A, the self-cleavage is 0.239. On to A23C U62G, for which the self-cleavage was 0.0867. Under G21C A47U stands 0.181; under C4A G57C, 0.156. The figure for A23G G32C is 0.163.

Take A45G U52C: the self-cleavage stood at 0.0811. The figure for A22U A23U is 0.842; for G21U A44U it is 0.165; for C3G C65U it is 0.0576.

For U55C U70C, the self-cleavage worked out at 0.195. Under A35C G56A stands 0.161; under U9G G27U, 0.171; under C10G G57U, 0.243.

As for A31C C38A, the self-cleavage came to 0.141. Under G17A A71U stands 0.868. Under U7G G27A stands 0.369; under A43G A61C, 0.0791. Consider A31G A61G, for which the self-cleavage turned out to be 0.118. The figure for C16G G56C is 0.2; for C38G G69U it is 0.155.

With A36G A44C, the self-cleavage amounted to 0.0853. For U63C C65A, the self-cleavage is 0.106. The figure for G25A G29A is 0.204; for U5G G19A it is 0.243; for G21C G32A it is 0.141. The figure for C10A A43G is 0.132; for G34C A43C it is 0.144.

On to U8A A45U, for which the self-cleavage was determined as 0.198. With A36U G51A, the self-cleavage is 0.508. Under C18G G27U stands 0.199; under C3G C48A, 0.0662. For C37U G69U, the self-cleavage was determined as 0.438. Under U2A U9G stands 0.179.

For the origin of these results see the RNAGym collection of RNA variant scans (doi:10.7554/elife.80360).
